Experimental data as given in patent US10787678 (UNIVERSITY OF GEORGIA RESEARCH FOUNDATION, dated 2020).

Legend:
Cry3Bb toxin [1] = target: T1, Cry3Bb toxin (Bacillus thuringiensis, UniProt Q06117 64-652); experiment: cell-based or functional assay
Cry3Bb toxin [2] = target: T1, Cry3Bb toxin; experiment: ELISA, biotinylated peptide titrated on plate-coated activated Cry3Bb; one-site saturation binding fit of specific binding

T1 sequence (Q06117 64-652 limits assumed): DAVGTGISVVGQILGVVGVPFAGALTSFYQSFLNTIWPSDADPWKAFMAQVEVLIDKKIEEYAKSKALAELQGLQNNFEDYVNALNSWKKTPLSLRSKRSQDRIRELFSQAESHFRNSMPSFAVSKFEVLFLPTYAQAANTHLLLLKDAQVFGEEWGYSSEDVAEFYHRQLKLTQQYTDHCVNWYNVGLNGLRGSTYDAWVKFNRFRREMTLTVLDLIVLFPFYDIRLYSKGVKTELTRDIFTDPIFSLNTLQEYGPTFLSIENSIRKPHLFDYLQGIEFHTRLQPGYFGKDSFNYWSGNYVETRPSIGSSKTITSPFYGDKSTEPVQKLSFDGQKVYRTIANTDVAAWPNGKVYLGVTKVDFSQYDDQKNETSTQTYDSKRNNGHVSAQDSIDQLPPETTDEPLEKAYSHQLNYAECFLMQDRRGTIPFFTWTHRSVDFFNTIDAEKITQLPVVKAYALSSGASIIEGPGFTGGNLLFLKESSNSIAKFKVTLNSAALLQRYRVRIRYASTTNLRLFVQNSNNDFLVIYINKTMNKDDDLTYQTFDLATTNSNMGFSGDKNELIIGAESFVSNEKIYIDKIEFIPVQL

| Binder | larval mortality with Cry3Bb (10 ug/cm^2) plus peptide at a 1:10 mass ratio, against 10% with toxin alone (Cry3Bb toxin [1]) [%] | Kd (Cry3Bb toxin [2]) [nM] |
| --- | --- | --- |
| AdCad1-CR9 peptide (biotinylated with sulfo-NHS-photocleavable biotin (50-fold molar excess) in the binding assay, Expressed in E. coli from pET-30a (Nde I / Xho I), purified from inclusion bodies on a Ni-chelating column; In the bioassays it was used unlabelled, as inclusion bodies; also called biotinylated-AdCad1-CR9; not shown: C-terminal His-tag from the pET-30a vector) TEMIYKLTVEASIKEQTQINGKPTFARCEFNVGFFDKDNTDPIFKNKHEDTHEMAEEDDTLFYVLIENATYAKEDVPDDLSTFYLLAEGERDIFDVDKFTGKVTLNKPLDYETKKSHSLTIQSSNSDKLKLNASEETKLHLTIIVTDINDHAPVM | > 25 | 23.2 |
| AdCad1-MPED peptide (biotinylated with sulfo-NHS-photocleavable biotin (50-fold molar excess) in the binding assay, Expressed in E. coli from pET-30a (Nde I / Xho I), purified from inclusion bodies on a Ni-chelating column; In the bioassays it was used unlabelled, as inclusion bodies; also called biotinylated-AdCad1-MPED; not shown: C-terminal His-tag from the pET-30a vector) DSDSYITVLPLVDAVSTAKLVTIHATDPDDTSEVQYQIESCIGSGDLLQKLCGNNPFEINKISGEISAQIQSANLSKWDGHFNLTVTAADEAGFDDKNHTDEAVVTLYLVTKLHLVAFDFENSLEQVQNKSNEIKTILDEQFAETSDGGTPYVATVQGANAKSDEITTATVYFLNLKQQKPVNKDNIYSYCTNTQYFGSMRSAFLAEGLSLMSFDGTSNETEDMEEILT | > 25 | 40.6 |
